Laboratory results from US20210079074A1 (Alector, published 2021).
Read-outs that look alike come from different tables or passages of the source.

T1: FcγRIIa receptor (H131 variant) (UniProt P12318 34-317, limits assumed)
T1 sequence (looked up): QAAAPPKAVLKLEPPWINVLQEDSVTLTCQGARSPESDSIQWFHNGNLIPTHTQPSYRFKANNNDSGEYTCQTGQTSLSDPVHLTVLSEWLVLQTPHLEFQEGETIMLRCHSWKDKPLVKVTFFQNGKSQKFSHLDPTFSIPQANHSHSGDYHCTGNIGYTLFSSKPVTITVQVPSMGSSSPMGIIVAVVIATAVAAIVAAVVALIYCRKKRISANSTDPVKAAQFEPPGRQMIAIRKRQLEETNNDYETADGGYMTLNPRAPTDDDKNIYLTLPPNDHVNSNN


Experiments:
[1] = target: T2, human MS4A4A (human, UniProt Q96JQ5 1-239); experiment: FACS, U937-huMS4A4A, 5 ug/ml
Procedure: (§1) Anti-MS4A4A antibodies tested were either mouse IgGs purified from hybridoma supernatant or human IgG1 Fc chimeras produced recombinantly in Expi293 cells. Affinity binding to cells was determined as follows. Briefly, cells were harvested, washed, and labeled with Aqua Live/Dead for viability discrimination. After a wash with PBS, 2×10\hat{ }4 cells were aliquoted per well in 96-well U-bottom plates and incubated with 50 μL of purified anti-MS4A4A antibody at various concentrations (3× dilutions starting at 10 μg/mL) in FACS buffer (PBS+2% FBS+1 mM EDTA). After this primary incubation, the supernatant was removed via centrifugation, washed 2× with 150 μL of ice-cold FACS buffer, and incubated with the appropriate secondary antibody on ice for 15 minutes. Following the secondary antibody incubation, the cells were again washed 2× with ice-cold FACS buffer and resuspended in a final volume of 200 μL of FACS buffer. Flow cytometry analysis was performed on a FACSCanto system (BD Biosciences). Binding data was expressed as Median Fluorescent Intensity (MFI).
(§2) These experiments were performed using anti-MS4A4A antibodies at a concentration of 5 μg/ml and were assayed for cell binding by flow cytometry.

[2] = target: FcγRIIIa receptor (V158 variant) (UniProt P08637 17-254); experiment: cell-based or functional assay
Chain of FcγRIIIa receptor (V158 variant) (P08637 other isoform, or with tags, fused parts or gaps mutant limits assumed): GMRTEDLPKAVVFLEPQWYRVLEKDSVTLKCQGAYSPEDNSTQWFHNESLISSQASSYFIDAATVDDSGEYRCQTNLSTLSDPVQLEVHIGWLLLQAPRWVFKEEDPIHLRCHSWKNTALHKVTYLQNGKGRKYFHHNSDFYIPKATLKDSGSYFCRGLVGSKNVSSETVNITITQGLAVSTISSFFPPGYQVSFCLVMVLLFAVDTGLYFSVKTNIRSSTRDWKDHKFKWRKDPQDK

[3] = target: T3, recombinant MS4A4A soluble polypeptide JS5; experiment: ELISA, 0.11 ug/ml antibody
T3 construct: also called JS5.His
Procedure: (§3) Anti-MS4A4A antibodies of the present disclosure were tested for their ability to bind to the different recombinant MS4A4A soluble polypeptides, as described in Example 2, as follows. Nucleic acid encoding the VH and VL domains of humanized anti-MS4A4A antibodies of the present disclosure were cloned into pcDNA3.4 vector which contains either the human IgG1 heavy chain constant domain or human kappa constant domain. The humanized anti-MS4A4A antibodies were expressed in Expi293 cells and were purified by Mab select antibody purification resin (GE Healthcare Life Science, cat#17519902) following the manufacture's protocol. ELISA was performed to measure binding of anti-MS4A4A antibodies of the present disclosure the recombinant MS4A4A soluble polypeptides. 1 μg/ml biotinylated antigens were preincubated on the streptavidin-coated ELISA plates (Thermo Scientific, cat#PI15120) for 1 hour. Plates were washed 3 times, followed by the addition of antibodies (1 μg/ml, 0.33 μg/ml, and 0.11 μg/ml antibodies. Plates were incubated at room temperature with shaking for 1 hr, washed 3 times, then 1/2500 dilution of HRP conjugates goat anti human kappa antibodies added (SigmaAldrich cat#. A7164-1ML).

[4] = target: T3, recombinant MS4A4A soluble polypeptide …; experiment: ELISA, 0.33 ug/ml antibody
Procedure: as §3

[5] = target: T3, recombinant MS4A4A soluble polypeptide …; experiment: ELISA, 1 ug/ml antibody
Procedure: as §3

[6] = target: T1, FcγRIIa receptor (H131 variant); experiment: cell-based or functional assay
[7] = target: T4, recombinant MS4A4A soluble polypeptide JS1; experiment: ELISA, 1 ug/ml antibody
T4 construct: also called JS1.His; loop grafted antigen
Procedure: as §3

[8] = target: T2, human MS4A4A; experiment: FACS, U937-huMS4A4A, 5 ug/ml; remark: listed apart in the source
Procedure: as §1, §2

[9] = target: T3, recombinant MS4A4A soluble polypeptide …; experiment: ELISA, 0.4 ug/ml antibody

| Binder | MFI [1] | ELISA OD [3] | ELISA OD [4] | ELISA OD [5] | also measured |
| --- | --- | --- | --- | --- | --- |
| anti-MS4A4A antibody 4A-313 wildtype (WT) huIgG1 (antibody, also called 4A-313 WT huIgG1; 4A-313.WT) heavy: not shown light: EIVLTQSPATLSLSPGERATLSCRASESVDNYGVSRMNWYQQKPGQAPRLLIYGASNQGSGIPARFSGSGSGTDFTLTISSLEPEDFAVYYCQQSKEVPPTFGGGTKVEIKRTVAAPSVFIFPPSDEQLKSGTASVVCLLNNFYPREAKVQWKVDNALQSGNSQESVTEQDSKDSTYSLSSTLTLSKADYEKHKVYACEVTHQGLSSPVTKSFNRGEC | 41800 | 0.741 | 1.05 | 1.26 | luminescence, ADCC reporter, 3.048316 ng/mL [2]: 346; luminescence, ADCC reporter, 9.144947 ng/mL [2]: 367; luminescence, ADCC reporter, 27.43484 ng/mL [2]: 473; luminescence, ADCC reporter, 82.30453 ng/mL [2]: 839; luminescence, ADCC reporter, 246.9136 ng/mL [2]: 2060; luminescence, ADCC reporter, 740.7407 ng/mL [2]: 4350; luminescence, ADCC reporter, 2,222.222 ng/mL [2]: 5130; luminescence, ADCC reporter, 6,666.667 ng/mL [2]: 4890; luminescence, ADCC reporter, 20,000 ng/mL [2]: 4400; luminescence, ADCP reporter, 3.048316 ng/mL [6]: 48; luminescence, ADCP reporter, 9.144947 ng/mL [6]: 54; luminescence, ADCP reporter, 27.43484 ng/mL [6]: 80; luminescence, ADCP reporter, 82.30453 ng/mL [6]: 64; luminescence, ADCP reporter, 246.9136 ng/mL [6]: 98; luminescence, ADCP reporter, 740.7407 ng/mL [6]: 85; luminescence, ADCP reporter, 2,222.222 ng/mL [6]: 128; luminescence, ADCP reporter, 6,666.667 ng/mL [6]: 403; luminescence, ADCP reporter, 20,000 ng/mL [6]: 455 |
| anti-MS4A4A antibody 4A-302 (antibody, human IgG1, V domains shown, human IgG1/kappa) VH: QVQLVQSGAEVKKPGASVKVSCKASGYTFTNYWMQWVRQAPGQGLEWMGATHPGHGDTRYAQKFQGRVTMTRDTSTSTVYMELSSLRSEDTAVYYCAREEVYYGFRSYWYFDVWGRGTLVTVSS VL: EIVLTQSPATLSLSPGERATLSCRASESVDNYGVSFMNWYQQKPGQAPRLLIYGASNQGSGIPARFSGSGSGTDFTLTISSLEPEDFAVYYCQQSKEVPPTFGGGTKVEIK | 24400 | 0.091 | 0.103 | 0.128 | OD450 [7]: 0.127; MFI [8]: 113 |
| anti-MS4A4A antibody 4A-312 (antibody, V domains shown, full human IgG) VH: QVQLVQSGAEVKKPGASVKVSCKASGYTFTNYWMQWVRQAPGQGLEWMGATHPGHGDTRYAQKFQGRVTMTRDTSTSTVYMELSSLRSEDTAVYYCAREEVDYGFRSYWYFDVWGRGTLVTVSS VL: EIVLTQSPATLSLSPGERATLSCRASESVDNYGVSFMNWYQQKPGQAPRLLIYGASNQQSGIPARFSGSGSGTDFTLTISSLEPEDFAVYYCQQSKEVPPTFGGGTKVEIK | 17700 | 0.097 | 0.11 | 0.184 | – |
| anti-MS4A4A antibody 4A-350 (antibody, V domains shown, full human IgG) VH: QVQLVQSGSELKKPGASVKVSCKASGYIFTSYGLSWVRQAPGQGLEWMGWINTYSGVPTYAQGFTGRFVFSLDTSVSTAYLQISSLKAEDTAVYYCARTLADYWGQGTLVTVSS VL: DVVMTQSPLSLPVTLGQPASISCKSSQSLLYSDGKTYLSWFQQRPGQSPRRLIYLVSKLDSGVPDRFSGSGSGTDFTLKISRVEAEDVGVYYCWQGIDFHQTFGGGTKVEIK | 11600 | – | – | – | OD450 [9]: 0.939 |
| anti-MS4A4A antibody 4A-356 (antibody, V domains shown, full human IgG) VH: QVQLVQSGSELKKPGASVKVSCKASGYIFTSYGLSWVRQAPGQGLEWMGWINTYSGVPTYAQGFTGRFVFSLDTSVSTAYLQISSLKAEDTAVYYCARTLADYWGQGTLVTVSS VL: DVVMTQSPLSLPVTLGQPASISCKSSRSLLYSQGKTYLSWFQQRPGQSPRRLIYLVSKLDSGVPDRFSGSGSGTDFTLKISRVEAEDVGVYYCWQGIDFHQTFGGGTKVEIK | 12000 | 0.746 | 0.85 | 0.927 | – |
| anti-MS4A4A antibody 4A-377 (antibody, V domains shown, full human IgG) VH: QVQLVQSGSELKKPGASVKVSCKASGYIFTSYGLSWVRQAPGQGLEWMGWINTYSGVPTYAQGFTGRFVFSLDTSVSTAYLQISSLKAEDTAVYYCARSMADYWGQGTLVTVSS VL: DVVMTQSPLSLPVTLGQPASISCKSSRSLLYSGGKTYLSWFQQRPGQSPRRLIYLVSKLDSGVPDRFSGSGSGTDFTLKISRVEAEDVGVYYCWQGIDFHQTFGGGTKVEIK | 12200 | 0.577 | 0.873 | 0.928 | – |
| anti-MS4A4A antibody 4A-355 (antibody, V domains shown, full human IgG) VH: QVQLVQSGSELKKPGASVKVSCKASGYIFTSYGLSWVRQAPGQGLEWMGWINTYSGVPTYAQGFTGRFVFSLDTSVSTAYLQISSLKAEDTAVYYCARTLADYWGQGTLVTVSS VL: DVVMTQSPLSLPVTLGQPASISCKSSRSLLYSSGKTYLSWFQQRPGQSPRRLIYLVSKLDSGVPDRFSGSGSGTDFTLKISRVEAEDVGVYYCWQGIDFHQTFGGGTKVEIK | 13400 | 0.721 | 0.878 | 0.961 | – |

Second part, led by results:

| MFI [1] | ELISA OD [3] | ELISA OD [4] | ELISA OD [5] | Binder | also measured |
| --- | --- | --- | --- | --- | --- |
| 15300 | 0.399 | 0.682 | 1.14 | anti-MS4A4A antibody 4A-314 (antibody, V domains shown, full human IgG) VH: QVQLVQSGAEVKKPGASVKVSCKASGYTFTNYWMQWVRQAPGQGLEWMGTTLPGHGDTRYAQKFQGRVTMTRDTSTSTVYMELSSLRSEDTAVYYCAREEVYYGFRSYWYFDVWGRGTLVTVSS VL: EIVLTQSPATLSLSPGERATLSCRASESVDNYGVSRMNWYQQKPGQAPRLLIYGASNQGSGIPARFSGSGSGTDFTLTISSLEPEDFAVYYCQQSKEVPPTFGGGTKVEIK | – |
| 10600 | 0.543 | 0.812 | 0.893 | anti-MS4A4A antibody 4A-379 (antibody, V domains shown) VH: QVQLVQSGSELKKPGASVKVSCKASGYIFTSYGLSWVRQAPGQGLEWMGWINTYSGVPTYAQGFTGRFVFSLDTSVSTAYLQISSLKAEDTAVYYCARSMADYWGQGTLVTVSS VL: DVVMTQSPLSLPVTLGQPASISCKSSRSLLYSAGKTYLSWFQQRPGQSPRRLIYLVSKLDSGVPDRFSGSGSGTDFTLKISRVEAEDVGVYYCWQGIDFHQTFGGGTKVEIK | – |
| 11800 | 0.654 | 0.916 | 0.981 | anti-MS4A4A antibody 4A-380 (antibody, V domains shown) VH: QVQLVQSGSELKKPGASVKVSCKASGYIFTSYGLSWVRQAPGQGLEWMGWINTYSGVPTYAQGFTGRFVFSLDTSVSTAYLQISSLKAEDTAVYYCARSMADYWGQGTLVTVSS VL: DVVMTQSPLSLPVTLGQPASISCKSSRSLLYSSGKTYLSWFQQRPGQSPRRLIYLVSKLDSGVPDRFSGSGSGTDFTLKISRVEAEDVGVYYCWQGIDFHQTFGGGTKVEIK | – |
| 9910 | 0.636 | 0.848 | 0.944 | anti-MS4A4A antibody 4A-378 (antibody, V domains shown) VH: QVQLVQSGSELKKPGASVKVSCKASGYIFTSYGLSWVRQAPGQGLEWMGWINTYSGVPTYAQGFTGRFVFSLDTSVSTAYLQISSLKAEDTAVYYCARSMADYWGQGTLVTVSS VL: DVVMTQSPLSLPVTLGQPASISCKSSRSLLYSEGKTYLSWFQQRPGQSPRRLIYLVSKLDSGVPDRFSGSGSGTDFTLKISRVEAEDVGVYYCWQGIDFHQTFGGGTKVEIK | – |
| 12600 | 0.685 | 0.94 | 1 | anti-MS4A4A antibody 4A-381 (antibody, V domains shown) VH: QVQLVQSGSELKKPGASVKVSCKASGYIFTSYGLSWVRQAPGQGLEWMGWINTYSGVPTYAQGFTGRFVFSLDTSVSTAYLQISSLKAEDTAVYYCARSMADYWGQGTLVTVSS VL: DVVMTQSPLSLPVTLGQPASISCKSSRSLLYSQGKTYLSWFQQRPGQSPRRLIYLVSKLDSGVPDRFSGSGSGTDFTLKISRVEAEDVGVYYCWQGIDFHQTFGGGTKVEIK | – |
